# Numbering of substitutions follows the chain as printed. Names may count otherwise.
# B1: FZD6 dimer mutant: D365A, R368A, Y369A triple mutant of FZD6 (protein)
# chain: HSLFTCEPITVPRCMKMAYNMTFFPNLMGHYDQSIAAVEMEHFLPLANLECSPNIETFLCKAFVPTCIEQIHVVPPCRKLCEKVYSDCKKLIDTFGIRWPEELECDRLQYCDETVPVTFDPHTEFLGPQKKTEQVQRDIGFWCPRHLKTSGGQGYKFLGIDQCAPPCPNMYFKSDELEFAKSFIGTVSIFCLCATLFTFLTFLIDVRRFRYPERPIIYYSVCYSIVSLMYFIGFLLGDSTACNKADEKLELGDTVVLGSQNKACTVLFMLLYFFTMAGTVWWVILTITWFLAAGRKWSCEAIEQKAVWFHAVAWGTPGFLTVMLLAMNKVEGDNISGVCFVGLYDLAASAAFVLLPLCLCVFVGLSLLLAGIISLNHVRQVIQHDGRNQEKLKKFMIRIGVFSGLYLVPLVTLLGCYVYEQVNRITWEITWVSDHCRQYHIPCPYQAKAKARPELALFMIKYLMTLIVGISAVFWVGSKKTCTEWAGFFKRNRKRDPISESRRVLQESCEFFLKHNSKVKHKKKHYKPSSHKLKVISKSMGTSTGATANHGTSAVAITSHDYLGQETLTEIQTSPETSMREVKADGASTPRLREQDCGEPASPAASISRLSGEQVDGKGQAGSVSESARSEGRISPKSDITDTGLAQSNNLQVPSSSEPSSLKGSTSLLVHPVSGVRKEQGGGCHSDT
# modifications: left off: GFP, C-terminal, kept
# B2: FZD6-R511C: DVL-biased FZD6 nail dysplasia mutant (protein, UniProt O60353 19-706, looked up, variant R511C)
# Frizzled-6: B1 chain with A347D, A350R, A351Y, R493C
# modifications: GFP or mCherry tag
# notes: DVL-biased FZD6 nail dysplasia mutant
# Experiments:
# [1] = tested on: SNAP-β2-adrenergic receptor; test: SNAP-β2-AR internalization by confocal microscopy; format: cell-based; details: HEK293; isoproterenol 10 µM, 15 min
# Experimental: SNAP-FZD6 and SNAP-β2-AR were imaged in living cells using a Zeiss LSM710 equipped with a 40×, 1.2 NA C-Apochromat objective. The cell-impermeable SNAP substrate SNAP-Surface 549 (New England Biolabs) was added (1:1000, 15 min), washed twice in BE buffer and imaged using the 561 nm laser line. SNAP-FZD6 and SNAP-β2-AR were stimulated with 300 ng ml^−1 WNT-5A and 10 µM isoproterenol, respectively, and fluorescence was monitored over time.
# [2] = tested on: subcellular localization in HEK293 cells; test: co-localization of FZD6-R511C with FZD6 constructs; format: cell-based, human; details: FZD6-R511C with FZD6-mCherry, or FZD6 dimer mutant with FZD6-R511C
# [3] = tested on: ERK1/2 phosphorylation in HEK293 cells; test: P-ERK1/2 immunoblot, HEK293 cells expressing SNAP-FZD6 constructs; format: cell-based
# Experimental: Fig. 6 Relationship between FZD6 dimerization and phosphorylation of ERK1/2. a Mouse lung epithelial (MLE-12) cells were stimulated with WNT-5A (300 ng ml^−1) for 0, 2.5, 5, 10, 20 min. Cell lysates were analyzed for P-ERK1/2 and β-actin by immunoblotting. Additional information in Supplementary Fig. 6. b Bar graph summarizes three independent experiments. Densitometry data were normalized to the unstimulated control. […] Additional information in Supplementary Fig. 6. SNAP-FZD6 wt- and SNAP-FZD6 dimer mutant-induced ERK1/2 phosphorylation in the absence e and presence f of the porcupine inhibitor C59 (5 µM, overnight) were probed by immunoblotting for the SNAP-tag, P-ERK1/2, total ERK1/2 and β-actin. g The bar graph summarizes densitometry data of P-ERK1/2 normalized to total ERK1/2 from 6 different experiments. P = 0.0005; F (2, 15) = 13.08. ***P < 0.001. Empty vector transfection was used as mock. h Increasing amounts of plasmid of either SNAP-FZD6 wt or SNAP-FZD6 dimer mutant in the presence of C59 show a dose-dependent increase in P-ERK1/2 only with the dimer mutant. Data from three independent experiments for the dimer mutant were fit to a linear least-squares model (slope = 0.40 ± 0.10; R ^2 = 0.5943) and this line is shown superimposed. […] This dissociation-dependent activation can be evoked by agonist (WNT^high) or mutation of the dimer interface (symbolized by red stars). WNT^low conditions can be achieved in the presence of C59, which reduces FZD6 wt signaling
# MLE-12 or HEK293 cells (ATCC) were plated in a 24- or 48-well plate at a density of 100,000 or 50,000 cells/well, respectively. After 24 h, cells were transfected using Lipofectamine 2000 according to the manufacturer’s instructions. Cells were stimulated (24 h post-transfection) with 300 ng ml^−1 recombinant carrier-free WNT-5A (CF WNT-5A; R&D Systems). Stimulation was stopped by the addition of lysis buffer (1% NP-40, 150 mM NaCl, 50 mM Tris/HCl pH 8). Lysates were sonicated and analyzed by 7.5 or 10% Mini-PROTEAN TGX precast polyacrylamide gels (Bio-Rad) and transferred to PVDF membranes using the Trans-Blot Turbo system (Bio-Rad). After blocking with 5% milk or BSA in TBS-T, membranes were incubated with primary antibodies in blocking buffer: mouse anti-β-actin (1:30,000; Sigma #A5441), rabbit anti-FZD6 (1:1000; NovusBio #NBP1-00830), rabbit anti-Phospho-p44/42 MAPK (ERK1/2) (Thr202/Tyr204) (1:1000; Cell Signaling Technology #9101 L), rabbit anti-p44/42 MAPK (ERK1/2) (1:1000; Cell Signaling Technology #9102), rabbit anti-Phospho-C-RAF (Ser338) (1:1000; Cell Signaling Technology #56A6), rabbit anti-SNAP tag (1:1000, New England Biolabs #P9310S), and rabbit anti-HA (1:4000, abcam #ab9110) overnight at 4 °C. Proteins were detected with horseradish peroxidase-conjugated secondary antibodies (goat anti-rabbit and goat anti-mouse (Pierce)) and Clarity Western ECL Blotting Substrate (Bio-Rad). All uncropped immunoblots can be found in the Supplementary Information.
# DVL2-GFP = test: dcFRAP with chemical surface crosslinking, FZD6 dimer mutant/DVL2-GFP; format: cell-based; details: inactive state
# Experimental: For dual color FRAP experiments, cells grown in four compartment 35 mm glass bottom dishes were washed three times with BE buffer[19] (150 mM NaCl, 2.5 mM KCl, 10 mM HEPES, 12 mM glucose, 0.5 mM CaCl2, and 0.5 mM MgCl2). Then, the cells were incubated at RT for 30 min with biotin-conjugated goat polyclonal anti-V5 antibody (Bethyl) diluted 1:100 in BE buffer supplemented with 2.5% bovine serum albumin. For antibody-mediated cross-linking, avidin was added and incubated for 15 min and washed two times with BE buffer before the experiments were performed. […] Fluorescence was measured pre- and post-bleach using low-intensity illumination for a total time period of 100 s. Average pixel intensity was measured using the ZEN2013 software, corrected for background fluctuations and bleaching artifacts and normalized to pre-bleached intensity. The recovered mobile fraction (F m) was calculated as follows: F m = (I P–I 0)/(I I–I 0), where I I is the initial intensity measured prior to bleaching, I 0 is the immediate fluorescence intensity post-bleaching and I P is intensity value post-bleaching. The mobile fraction was defined by the average of the fluorescence recovery assessed between time 85–101 s (including pre-bleach measurements). […]
# FZD6–FZD6 dimer = test: dcFRAP of V5-FZD6-mCherry/FZD6-GFP (FZD6 dimerization); format: cell-based, human; details: HEK293; GFP-tagged mutant with wt V5-FZD6-mCherry; anti-V5/avidin crosslinking
# Summary of the method: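 Live cells co-expressing V5-FZD6-mCherry and FZD6-GFP, surface V5 tag crosslinked with biotin-anti-V5 plus avidin in BE buffer at RT. Membrane areas photobleached, recovery imaged (488/561 nm) over 100 s; mobile fraction from background/bleach-corrected, pre-bleach-normalized intensity at 85-101 s. Cells with <40% crosslink-induced mobility reduction excluded.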
# Gαi1-GFP = details: cited from earlier work
Molecule,internalization of SNAP-β2-adrenergic receptor [1],subcellular localization on co-expression [2],"P-ERK1/2 induction in presence of C59 ([3]; HEK293, C59 5 µM overnight)","slope of P-ERK1/2 vs plasmid amount ([3]; HEK293, C59, linear least-squares, R^2 = 0.5943, three independent experiments)","effect of overexpression on basal P-ERK1/2 without C59 ([3]; serum-starved HEK293, no C59)",assembly with DVL (DVL2-GFP),dimerization by CL-induced decrease of mobile fraction (FZD6–FZD6 dimer),assembly with Gαi1/Gαq proteins (Gαi1-GFP)
CC(C)NCC(O)c1ccc(O)c(O)c1 (stereo not drawn) [isoproterenol],appearance of numerous endosome-like structures after 15 min,,,,,,,
B1,,maintained cell surface localization,maintained its ability to induce ERK1/2 phosphorylation,0.40 ± 0.10,increased basal P-ERK1/2,retained the ability to interact with the scaffold protein DVL,did not result in a decrease of the mobile fraction of FZD6-GFP,
B2,,predominant intracellular localization of both constructs,,,,,,does not assemble with Gαi1/Gαq proteins

# — paper PMC5548745, “Agonist-induced dimer dissociation as a macromolecular step in G protein-coupled receptor signaling” (Nature Communications, 2017)
